Results on 125 sequences are retold here after the supplement of paper PMC9112550, “Optimization of the antimicrobial peptide Bac7 by deep mutational scanning” (BMC Biology, 2022).

This series relates to Escherichia coli TOP10. Description: shrunken log2 fold change of peptide-encoding DNA abundance (4.5 h post-induction vs induction); higher = less antimicrobial activity (less host growth inhibition). Conditions: time post-induction: 4.5 h; library: site-saturation at positions 5, 18, 19, 20.
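Note: peptides expressed intracellularly from a pBAD plasmid library in pooled LB shake-flask culture, induced with 0.3% L-arabinose, DNA abundance read by NGS, three biological replicates, DESeq2 with apeglm shrinkage.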

For RRIRYRPPRLPRPRPRPNKFPRP, the “shrunken log2 fold change” value is -0.546. Turning to RRIRQRPPRLPRPRPRPNASPRP, the “shrunken log2 fold change” value was -0.015. The result for RRIRRRPPRLPRPRPRPWCRPRP reads 1.02; that for RRIRPRPPRLPRPRPRPCCCPRP, 0.368; that for RRIRCRPPRLPRPRPRPLMAPRP, 0.18.

For the sequence RRIRNRPPRLPRPRPRPFYSPRP, the “shrunken log2 fold change” value is 0.0464. The result for RRIRPRPPRLPRPRPRPDCKPRP reads -0.133. The result for RRIRYRPPRLPRPRPRPYYGPRP reads -0.0846; that for RRIRPRPPRLPRPRPRPMCQPRP, 0.27; that for RRIRPRPPRLPRPRPRPSYEPRP, -0.178. Turning to RRIRDRPPRLPRPRPRPTGWPRP, the “shrunken log2 fold change” value stood at 1.21.

For the sequence RRIRERPPRLPRPRPRPYRAPRP, the “shrunken log2 fold change” value was found to be 0.0532. The result for RRIRMRPPRLPRPRPRPVKHPRP reads 0.0894; that for RRIRCRPPRLPRPRPRPYKHPRP, -1.04; that for RRIRNRPPRLPRPRPRPDQHPRP, -0.34.

In the case of RRIRVRPPRLPRPRPRPAAYPRP, the “shrunken log2 fold change” value was 0.00526. For the sequence RRIRTRPPRLPRPRPRPWQQPRP, the “shrunken log2 fold change” value was -0.0121. On to RRIRGRPPRLPRPRPRPQHRPRP, for which the “shrunken log2 fold change” value turned out to be 0.212. For the sequence RRIRTRPPRLPRPRPRPGRVPRP, the “shrunken log2 fold change” value is 0.744. The result for RRIRCRPPRLPRPRPRPRLPPRP reads 0.382.

In the case of RRIRVRPPRLPRPRPRPLRGPRP, the “shrunken log2 fold change” value came out at 0.764. RRIRPRPPRLPRPRPRPSITPRP: the “shrunken log2 fold change” value is -0.401. The result for RRIRNRPPRLPRPRPRPTVFPRP reads 0.0462; that for RRIRERPPRLPRPRPRPETGPRP, -0.373.

For the sequence RRIRIRPPRLPRPRPRPIFAPRP, the “shrunken log2 fold change” value is -0.0891. The result for RRIRRRPPRLPRPRPRPQGHPRP reads 0.071; that for RRIRCRPPRLPRPRPRPGPGPRP, 0.709; that for RRIRTRPPRLPRPRPRPRKLPRP, -0.073. On to RRIRSRPPRLPRPRPRPWWFPRP, for which the “shrunken log2 fold change” value amounted to 0.0202. The result for RRIRRRPPRLPRPRPRPEQWPRP reads -0.173.

On to RRIRPRPPRLPRPRPRPYCLPRP, for which the “shrunken log2 fold change” value is -0.115.

As for RRIRIRPPRLPRPRPRPRHIPRP, the “shrunken log2 fold change” value was -0.19.

Take RRIRKRPPRLPRPRPRPNPEPRP: the “shrunken log2 fold change” value worked out at 0.0292. With RRIRMRPPRLPRPRPRPQECPRP, the “shrunken log2 fold change” value was determined as 0.313.

Turning to RRIRYRPPRLPRPRPRPTHLPRP, the “shrunken log2 fold change” value was -0.0864. The result for RRIRMRPPRLPRPRPRPYLVPRP reads -0.016; that for RRIRTRPPRLPRPRPRPEYNPRP, -0.395. The result for RRIRSRPPRLPRPRPRPRGPPRP reads 0.568; that for RRIRRRPPRLPRPRPRPFVFPRP, 0.274; that for RRIRARPPRLPRPRPRPTKNPRP, 0.429.

Turning to RRIRPRPPRLPRPRPRPFANPRP, the “shrunken log2 fold change” value was -0.0686. The result for RRIRHRPPRLPRPRPRPTGHPRP reads 0.173; that for RRIRRRPPRLPRPRPRPHVHPRP, 0.0274.

Consider RRIRMRPPRLPRPRPRPWMQPRP, for which the “shrunken log2 fold change” value turned out to be 2.38.

In the case of RRIRHRPPRLPRPRPRPIIIPRP, the “shrunken log2 fold change” value is -0.247. The result for RRIRIRPPRLPRPRPRPYRNPRP reads -0.0378; that for RRIRTRPPRLPRPRPRPMFVPRP, -0.215; that for RRIRDRPPRLPRPRPRPNWAPRP, 0.00788. Consider RRIRMRPPRLPRPRPRPTHIPRP, for which the “shrunken log2 fold change” value is -0.363. As for RRIRLRPPRLPRPRPRPMTPPRP, the “shrunken log2 fold change” value was -0.023. Turning to RRIRPRPPRLPRPRPRPMLDPRP, the “shrunken log2 fold change” value amounted to 0.071.

Turning to RRIRPRPPRLPRPRPRPHLGPRP, the “shrunken log2 fold change” value is 0.088. Regarding RRIRTRPPRLPRPRPRPKEAPRP, the “shrunken log2 fold change” value turned out to be 0.00564. For the sequence RRIRGRPPRLPRPRPRPKFCPRP, the “shrunken log2 fold change” value came out at 0.23. The result for RRIRERPPRLPRPRPRPINDPRP reads -0.223.

Take RRIRTRPPRLPRPRPRPDWCPRP: the “shrunken log2 fold change” value was -0.0271. The result for RRIRERPPRLPRPRPRPTAYPRP reads -0.166; that for RRIRCRPPRLPRPRPRPALQPRP, 0.313; that for RRIRCRPPRLPRPRPRPFPYPRP, -0.645. The result for RRIRMRPPRLPRPRPRPACGPRP reads 0.811; that for RRIRWRPPRLPRPRPRPVHLPRP, -0.00868; that for RRIRCRPPRLPRPRPRPQASPRP, -0.000207. On to RRIRCRPPRLPRPRPRPNMFPRP, for which the “shrunken log2 fold change” value is -0.529. The result for RRIRWRPPRLPRPRPRPSPSPRP reads 0.375; that for RRIRARPPRLPRPRPRPNPGPRP, 0.462. The result for RRIRCRPPRLPRPRPRPKEPPRP reads 0.302; that for RRIRERPPRLPRPRPRPLMEPRP, 0.0296; that for RRIRARPPRLPRPRPRPACFPRP, 0.736. The result for RRIRPRPPRLPRPRPRPYMPPRP reads -0.854; that for RRIRSRPPRLPRPRPRPFPYPRP, -0.115; that for RRIRSRPPRLPRPRPRPCLKPRP, 0.0091.

As to RRIRVRPPRLPRPRPRPEDTPRP, the “shrunken log2 fold change” value is 0.106. RRIRTRPPRLPRPRPRPKTTPRP: the “shrunken log2 fold change” value came to 0.0871. The result for RRIRCRPPRLPRPRPRPVLWPRP reads 0.136. RRIRDRPPRLPRPRPRPEICPRP: the “shrunken log2 fold change” value was 0.023. On to RRIRHRPPRLPRPRPRPLTIPRP, for which the “shrunken log2 fold change” value is -0.207.

In the case of RRIRTRPPRLPRPRPRPGKAPRP, the “shrunken log2 fold change” value is -0.0369. With RRIRTRPPRLPRPRPRPCHHPRP, the “shrunken log2 fold change” value is -0.0688. As to RRIRFRPPRLPRPRPRPGLIPRP, the “shrunken log2 fold change” value is -0.0301. For RRIRERPPRLPRPRPRPLKPPRP, the “shrunken log2 fold change” value was -0.16. Consider RRIRIRPPRLPRPRPRPYQMPRP, for which the “shrunken log2 fold change” value was -0.35. The result for RRIRMRPPRLPRPRPRPLWDPRP reads 0.437. The result for RRIRNRPPRLPRPRPRPRRWPRP reads 0.701; that for RRIRKRPPRLPRPRPRPRALPRP, 0.396; that for RRIRRRPPRLPRPRPRPPSMPRP, 0.426. RRIRERPPRLPRPRPRPSPRPRP: the “shrunken log2 fold change” value turned out to be 0.265. As for RRIRQRPPRLPRPRPRPIIGPRP, the “shrunken log2 fold change” value is -0.161.

Turning to RRIRSRPPRLPRPRPRPPTNPRP, the “shrunken log2 fold change” value turned out to be 0.298. For the sequence RRIRKRPPRLPRPRPRPNRIPRP, the “shrunken log2 fold change” value is 0.0866.

RRIRLRPPRLPRPRPRPWYHPRP: the “shrunken log2 fold change” value turned out to be 0.112. Take RRIRTRPPRLPRPRPRPINWPRP: the “shrunken log2 fold change” value was -0.0841. With RRIRHRPPRLPRPRPRPTPDPRP, the “shrunken log2 fold change” value came to 0.134. On to RRIRMRPPRLPRPRPRPWHLPRP, for which the “shrunken log2 fold change” value is -0.00137. Turning to RRIRKRPPRLPRPRPRPITDPRP, the “shrunken log2 fold change” value is -0.128. Consider RRIRVRPPRLPRPRPRPDSCPRP, for which the “shrunken log2 fold change” value is -0.115. The result for RRIRMRPPRLPRPRPRPRMYPRP reads -0.0804; that for RRIRKRPPRLPRPRPRPLFKPRP, 0.11; that for RRIRDRPPRLPRPRPRPKDEPRP, 0.0229.

In the case of RRIRMRPPRLPRPRPRPPYSPRP, the “shrunken log2 fold change” value is -0.0464.

On to RRIRLRPPRLPRPRPRPIHLPRP, for which the “shrunken log2 fold change” value is -0.453.

On to RRIRVRPPRLPRPRPRPPHKPRP, for which the “shrunken log2 fold change” value was found to be 0.274. With RRIRSRPPRLPRPRPRPYFPPRP, the “shrunken log2 fold change” value is -0.694.

Turning to RRIRIRPPRLPRPRPRPIREPRP, the “shrunken log2 fold change” value was -0.0273.

RRIRWRPPRLPRPRPRPQDHPRP: the “shrunken log2 fold change” value was 0.178. Regarding RRIRGRPPRLPRPRPRPCREPRP, the “shrunken log2 fold change” value is -0.368. With RRIRCRPPRLPRPRPRPAQNPRP, the “shrunken log2 fold change” value came to 0.586. The result for RRIRKRPPRLPRPRPRPADCPRP reads 0.117; that for RRIRYRPPRLPRPRPRPFTQPRP, -0.646; that for RRIRGRPPRLPRPRPRPDNPPRP, 0.0274. Turning to RRIRQRPPRLPRPRPRPSCEPRP, the “shrunken log2 fold change” value was determined as 0.0555. On to RRIRGRPPRLPRPRPRPYMVPRP, for which the “shrunken log2 fold change” value was -0.296. With RRIRERPPRLPRPRPRPECEPRP, the “shrunken log2 fold change” value stood at 0.318. The result for RRIRHRPPRLPRPRPRPAATPRP reads 0.292. Regarding RRIRKRPPRLPRPRPRPSIFPRP, the “shrunken log2 fold change” value is -0.0205. For RRIRYRPPRLPRPRPRPWMVPRP, the “shrunken log2 fold change” value was -0.523.

Consider RRIRNRPPRLPRPRPRPYWVPRP, for which the “shrunken log2 fold change” value was -0.134. The result for RRIRRRPPRLPRPRPRPMEDPRP reads 0.0525; that for RRIRARPPRLPRPRPRPVQAPRP, 0.312; that for RRIRYRPPRLPRPRPRPFQGPRP, 0.0712.

RRIRDRPPRLPRPRPRPSMCPRP: the “shrunken log2 fold change” value came to 0.123.

In the case of RRIRYRPPRLPRPRPRPPWQPRP, the “shrunken log2 fold change” value is -0.121.

Regarding RRIRVRPPRLPRPRPRPQKQPRP, the “shrunken log2 fold change” value is -0.376. The result for RRIRKRPPRLPRPRPRPAPSPRP reads 0.748; that for RRIRIRPPRLPRPRPRPQNEPRP, -0.226; that for RRIRDRPPRLPRPRPRPTISPRP, -0.0421.
